Biological target: hClpX E285A (human) (UniProt O76031)

stoichiometry N: 6
Substance: hClpX E285A (from UniProt O76031 57-633) (enzyme)
